Reference: the DeepSol protein solubility set

assay: soluble on expression in E. coli; label from the status in PepcDB or PDB records

Row | Sequence | soluble on expression in E. coli
1 | MGIRVVFERPQGGERAVLVQLALPGVDADKALAEFEELALSAKAEVLDCVLGARATPDAKYYVGKGKAEEIAHLVNMLDADLVLVNHELSPSQERNLERLFGCRVVDRSGLILDIFAQRARTFEGKLQVELAQLQHLSTRLIRGWTHLERQKGGIGLRGPGETQLETDRRLLRERIRYINKRLEKVRCSRDQNRQARRKASMPTVSLVGYTNAGKSTLFNVLTGEHTYVADQLFATLDPTMRKLELPGSSAAILADTVGFIRDLPHHLVEAFRATLEETQQADLLLHVIDISDPNWRETVFEVQKVLDELKVNNIPVIQVFNKIDLQEGWQPKIDYTEDSCKVWLSATTGAGLDLLKEAIATQLHGMILIEDIVIKPDQAKLRAQLYQLGAVLKESVDENGDWLMKIRITADQKRRLLSAAALEHHHHHH | not soluble
2 | MGISTFFLSVTLFTVNRTCDLLTPPPWYPITVKNTHHTSRHRSIFFILSVMIGKGTREDVQLSLSSLFQGVVMIVGQNPQAPSDLGIEGGERAQGQNAHSVHGPGLQTERGGSQLQMVGHPLRELLEHHHHHH | not soluble
3 | MGKEQFREADKALKVVGVKFAPGDCEFMRQTAHVPIFNNKLYEDVEGKLQPANYGPLDPKMGVSTKTGTCSTCGLGLTDCVGHFGYFDLDVPVFHIGFFKLTIQLLQCICKNCSSILLTPEQHRVFSRQVMNPNLDYLHRKALHKRIVAACKKGSTCSHCGLKNGTVKKAVGAVLKIAFASPVSVDELGKFATMFSSNQEVGDHVRKMKFTLLNPLFVQKLFSNIKEGDIPVLMVRSGEEKHPNDLLLTRMPVPPVCIRPSVVSEVKAGTTEDDVTMKLMEIMLTNDVLKKHKRDGAPSKTLFETWEHLQIQCALYINSEMSGLPPDMQPKRAMRAFTQRLKGKQGRFRGNLCGKRVDFSGRTVISPDPNLRIDQVGVPIHVAMTLTFPEIVNASNIEKMRQLVINGSDVHPGANYLVEKKTGNKKLLKYGKRDELAKNLRMGDTIERHLDDNDVVLFNRQPSLHKISIMSHRAKVMPGRTFRFNECACTPYNADFDGDEMNLHLPQTYEAKAEASELMNVKNNLITPRSGEPLVAAIQDFITGGYLLTHKDTFLPRAEVYRFAAALIDASAKKQTKIRIPPPAIRRPVELWTGKQLIELIIRPDKGSDVSLNLTAKNKSYTGNLELCSKDSYVIIRNSVLLAGCLDKSLLGSSSKVNIFYMLMRDYGEDAAVDAMWRLARMAPVFLSNRGFSIGIGDVRPSEQLLREKGQLVDNGYSKCSQYIKELEEGKLKAQPGCTEEETLESIILRELSTIRDHAGQVCLRNLSKYNAPLTMAVCGSKGSFINISQMIACVGQQAISGHRPPDGFEERSLPHFERKKKTPEAKGFVANSFYSGLTPTEFFFHTMGGREGLVDTAVKTAETGYMQRRLVKCLEDLCASYDGTVRSSVGDVIEFVFGEDGLDPAMMEAKDGSVVDFTHVLEHAKNIQTTKEQPIPVDKLDEVLKAEIQKKFKGKYVHFADKLSEYITQTEIKKSKKWQNGKAHCGNHETADLKTKESCKICKNLEAYKTSLLANSCLTKTQLCSFIELCYYKVARAITEPGTAVGAIAATSIGEPSTQMTLKTFHFAGVASMNITQGVPRIKEIINAVKTISTPIITAALLDPYDESLARRVKARIEKTTLGEICDYIEEVYLPDDYFLLVKLNSKRIRLLQLEVCMESISYAIATSKVCPQMRGCKIVAHGKTMMAIRPPSTSKLSKTMTMQILKYSLANVVVKGIPSVNRCVIHADEKKGDFYSLLVEGTDFRSVLSSVGVDPRKTNFNNALVVADVLGIEAARSCIINEIIATMDAHGIGLDRRHVMLLADVMTYRGEVLGITRNGLVKMKDSVLLLASFEKTMDHLFEAAFFSQRDVIHGVSECIIMGTPMTVGTGTFKLMQKYDKKAVLKQNSPIFERLNVTL | not soluble
4 | MGKFISGSIVAILTDQIEESTACNLKHLLRNDPLFKPLIQTNVHKKRSAYEIIGVHTCEENEPCRIGRTRSCLCQEDFVCDKTPANKNVHLCTKLGYFRLFEANKK | not soluble
5 | MGKGVRDPGSDGSLRRKELAMIKVEDMMTRHPHTLLRTHTLNDAKHLMEALDIRHVPIVDANKKLLGIVSQRDLLAAQESSLQRSAQGDSLAFETPLFEVMHTDVTSVAPQAGLKESAIYMQKHKIGCLPVVAKDVLVGIITDSDFVTIAINLLELQEESEPDELDEEQ | not soluble
6 | MGKIGIFFGTDSGNAEAIAEKISKAIGNAEVVDVAKASKEQFNSFTKVILVAPTAGAGDLQTDWEDFLGTLEASDFANKTIGLVGLGDQDTYSETFAEGIFHIYEKAKAGKVVGQTSTDGYHFEASKAVEGGKFVGLVIDEDNQDDLTDERISKWVEQVKGSFA | soluble
7 | MGKKHKKHKSDKHLYEEYVEKPLKLVLKVGGNEVTELSTGSSGHDSSLFEDKNDHDKHKDRKRKKRKKGEKQIPGEEKGRKRRRVKEDKKKRDRDRVENEAEKDLQCHAPVRLDLPPEKPLTSSLAKQEEVEQTPLQEALNQLMRQLQRKDPSAFFSFPVTDFIAPGYSMIIKHPMDFSTMKEKIKNNDYQSIEELKDNFKLMCTNAMIYNKPETIYYKAAKKLLHSGMKILSQERIQSLKQSIDFMADLQKTRKQKDGTDTSQSGEDGGCWQREREDSGDAEAHAFKSPSKENKKKDKDMLEDKFKSNNLEREQEQLDRIVKESGGKLTRRLVNSQCEFERRKPDGTTTLGLLHPVDPIVGEPGYCPVRLGMTTGRLQSGVNTLQGFKEDKRNKVTPVLYLNYGPYSSYAPHYDSTFANISKDDSDLIYSTYGEDSDLPSDFSIHEFLATCQDYPYVMADSLLDVLTKGGHSRTLQEMEMSLPEDEGHTRTLDTAKEMEITEVEPPGRLDSSTQDRLIALKAVTNFGVPVEVFDSEEAEIFQKKLDETTRLLRELQEAQNERLSTRPPPNMICLLGPSYREMHLAEQVTNNLKELAQQVTPGDIVSTYGVRKAMGISIPSPVMENNFVDLTEDTEEPKKTDVAECGPGGS | soluble
8 | MGKKYEIFLNENEHSLITPKVSFKEILRYYYLYPKNAIPSFKLPFFKPDLSGFSTPHITWLGHSSLFISFKEYKILIDPIFNTHASPISFINKAFKNAPVYNINDFNEIFAVIITHSHFDHLDAKSVKALKDKAKFFITPLKVGNYLKSYGVSEKKIIELDWWSGIEFGDLKIMATPAQHSSSRGDGKNKTLWASFVMEFLSVDKRVFFSADGGYFTHFKKIGEYFGSFDLACLESGQFNIAWPYSHSFPEQILKEAKDLNAKAVMPIHWGRFLAGTHAWNEVVKFLYENLDLPLITPKMGEAYEVGAKLEHHHHHH | soluble
9 | MGKVLVIYDTRTGNTKKMAELVAEGARSLEGTEVRLKHVDEATKEDVLWADGLAVGSPTNMGLVSWKMKRFFDDVLGDLWGEIDGKIACAFSSSGGWGGGNEVACMSILTMLMNFGFLVFGVTDYVGKKFTLHYGAVVAGEPRSEEEKEACRRLGRRLAEWVAIFVDGRKELLEKIRKDPARFVD | soluble
10 | MGKVPEEVRSYLMEAHSLAGQWSLPNDRGDHTNSEAYDVNSVAIIGGGTMGKAMAICFGLAGIETFLVVRNEQRCKQELEVMYAREKSFKRLNDKRIEKINANLKITSDFHKLSNCDLIVESVIEDMKLKKELFANLENICKSTCIFGTNTSSLDLNEISSVLRDPSNLVGIHFFNPANVIRLVEIIYGSHTSSQAIATAFQACESIKKLPVLVGNCKSFVFNRLLHVYFDQSQKLMYEYGYLPHQIDKIITNFGFLMGPMTVADMNGFDVMEKLKKENGLEPNPIEKEMWRLKRYGRKTNKGFYKYDDKTQRKENDTEMEQIIRRVSQNAKSNIQIINDQDVINFMLYPTVNEGYRCIEEGVISNESLIDIMFILGFGWPIHSGGPMRFGKTEGLDKIANMLVHWSSLEPKESAYIVADALKTANNKLMSSKL | soluble
11 | MGLFDRIKRVVSANLNDLVNKAEDPEKMLEQAILEMQEDLVQLRQGVAQAIAAQKRTEKQYSDAQNEINKWQRNAQLALQKGDENLARQALERKKTYTETGTALKTSLDQQSTQVETLKRNLIQLESKISEAKTKKEMLKARITTAKAQEQLEGMVRGMNSSSAMAAFERMEEKVLMQEARAQSAAELAGADLETQFARLESGSDVDDELAALKASLAPAPEQNLLPPQQQEQQSTAPKSKEVVDSELDALRKQLDQL | not soluble
12 | MGLLIEGRWHDQWYESGKDGAFQREQAQRRNWVTADGRPGPSGEGGFAAEAGRYHLYVSLACPWAHRTLILRKLKGLEQLIDVSVVSWLMRENGWTFDSAHGSSGDALDHFDFMHQRYTADTADYTGRVTVPVLWDKQQQRIVSNESAEIIRMFNSAFDGLTGNGLDFYPQPLRARIDELNARIYPALNNGVYRAGFATSQQAYETAFDDVFAELDALEALLDKQRYLAGEYLTEADVRLFTTLIRFDAVYHGHFKCNLRRIADYPNLSNWLRELYQWPGIAETVDFAHIKGHYYASHTTINPTGIVPKGPLQDFSRAHDRQRLSGQGVWCRGLEHHHHHH | not soluble
13 | MGLLKALLGFDRRDIETLARSNEENRRRIEALEAALARLEERISSISQALGRDARSTESLQGVEKEGGRETEYEGHNGTVEEGMLEDEGIIISHLEKGDATPSELIRDTGLSKNRVYGVLKRLVERGIVEKRRDGRRVVYSLRRVEAQADAPG | not soluble
14 | MGMIQLQNPSHPTGLLCKANQMRLAGTLCDVVIMVDSQEFHAHRTVLACTSKMFEILFHRNSQHYTLDFLSPKTFQQILEYAYTATLQAKAEDLDDLLYAAEILEIEYLEEQCLKMLETIQ | soluble
15 | MGNAAAYQRYRRPDCATEIDFSTENHSGREKIMSESLSWMQTGDTLALSGELDQDVLLPLWEMREEAVKGITCIDLSRVSRVDTGGLALLLHLIDLAKKQGNNVTLQGVNDKVYTLAKLYNLPADVLPR | not soluble
16 | MGNCLFGGLGDEEEDLLIKVIKSDGGVLEFYSPVTAGFVSHGFSGHALFSAVDLLWKPLAHDHLLVPGQSYYLFPNIVSDELKTFVGSCHVRSNSESLSAITPYRMSLDYNHRVLKRSYTDVFSRNSHIRTRQKEKKTRRRRTSSKGAIWKVNLIINTEELLQILSEDGRTNELIESVRAVAKGETSSITSSSSENFLSVVQT | soluble
17 | MGNDKRSQIFTLSRYAGILRRCLKENAMSAQKPGLHPRNRHHSRYDLATLCQVNPELRQFLTLTPAGEQSVDFANPLAVKALNKALLAHFYAVANWDIPDGFLCPPVPGRADYIHHLADLLAEASGTIPANASILDIGVGANCIYPLIGVHEYGWRFTGSETSSQALSSAQAIISSNPGLNRAIRLRRQKESGAIFNGIIHKNEQYDATLCNPPFHDSAAAARAGSERKRRNLGLNKDDALNFGGQQQELWCEGGEVTFIKKMIEESKGFAKQVMWFTSLVSRGENLPPLYRALTDVGAVKVVKKEMAQGQKQSRFIAWTFMNDEQRRRFVNRQRLEHHHHHH | not soluble
18 | MGQDTDMLNTYQQLVRTPSVRPGQDVRLQAPGTRTGLLKLLSTVSQDKQGCLGSGDGVPNQDLQQRSQSSRQTAKKDRKPRGQSKKGQGSEESEDHFPLLPRKPSFPFQWAWESIATDVRAVLQPSSPTPGHQALPMPSSFSQRQSRRKSTANLPEAHGCCWKTEAQNLKARQQLGAWGGVSIPTGKGELGSEPPSGLQLPGRRPGSGSASDKQVQLQSLGAEEAERGLSSGVLPQRPRRGSISEEEQFSEATEEAEEGEHRTPCRRRAGCQRKGQISGEEASDEGEVQGQSQGSSPSFNNLRRRQWRKTRAKELQGPWDLEKLHRQLQRDLDCGPQKLPWKTLRAAFQASKRNGKAYASGYDETFVSANLPNRTFHKRQEATRSLLQAWERQRQEERQQAELRRARTQHVQRQVAHCLAAYAPRGSRGPGAAQRKLEELRRQERQRFAEYQAELQGIQHRVQARPFLFQQAMQANARLTVTRRFSQVLSALGLDEEQLLSEAGKVDREGTPRKPRSHRSVGVRMEHSPQRPPRTEPTGSQPDRHYNPSLDPECSP | not soluble
19 | MGQKKYVELSKDIFIFSYLCGGINFTDIANLTQENIVNGRLHYIRQKTGKLIKIGIPQEAMQIIKKYTDESNGYLFPILNVKVHKTALQKQNRIHKIRGKVNDILKTLGKRLGIEANITTYVARHSFASVLKKSGVNIALISEALGHSDLATTQIYLDSFDNEQVDEAMKNLLEHHHHHH | soluble
